In IntAct's records for PubMed 16648257:

B1: Type IV secretion system protein virB8 (Brucella suis biovar 1 (strain 1330)), Q7CEG3 (parent)
chain: MFGRKQSPQKSVKNGQGNAPSVYDEALNWEAAHVRLVEKSERRAWKIAGAFGTITVLLGIGIAGMLPLKQHVPYLVRVNAQTGAPDILTSLDEKSVSYDTVMDKYWLSQYVIARETYDWYTLQKDYETVGMLSSPSEGQSYASQFQGDKALDKQYGSNVRTSVTIVSIVPNGKGIGTVRFAKTTKRTNETGDGETTHWIATIGYQYVNPSLMSESARLTNPLGFNVTSYRVDPEMGVVQ
partner: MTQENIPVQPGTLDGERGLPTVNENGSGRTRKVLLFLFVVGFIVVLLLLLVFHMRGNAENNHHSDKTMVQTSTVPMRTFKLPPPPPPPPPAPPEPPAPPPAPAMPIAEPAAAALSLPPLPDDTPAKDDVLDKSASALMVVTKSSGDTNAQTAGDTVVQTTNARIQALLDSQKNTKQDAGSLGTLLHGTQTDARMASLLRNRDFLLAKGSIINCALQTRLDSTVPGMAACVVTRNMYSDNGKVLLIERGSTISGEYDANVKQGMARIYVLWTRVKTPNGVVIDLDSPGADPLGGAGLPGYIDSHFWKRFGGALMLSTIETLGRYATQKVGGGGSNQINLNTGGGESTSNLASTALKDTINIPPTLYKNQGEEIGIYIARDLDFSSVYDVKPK

Variants of: B1
Settings: with virba_brusu virB10, Q9RPX5

Row | Variant | effect of a mutation on the interaction
1 | T201Y | decreasing interaction strength
2 | T201A | decreasing interaction strength
